# Data: publication PMC9389230, “Connective tissue growth factor-targeting DNA aptamer suppresses pannus formation as diagnostics and therapeutics for rheumatoid arthritis”
# How the values were obtained:
# [1] = molecular target: murine CTGF (SPR) (mouse, UniProt P29268 26-348); assay: SPR; SPR: PBS running buffer, CTGF on CM5 chip, aptamer 9.375-600 nM, 10 ul/min (SA chip with biotinylated aptamer for cytokines and CTGF deletion mutants); dot blot: nitrocellulose, 10% BSA block, 1 uM biotinylated aptamer, room temperature; pH not stated; details: protein: recombinant; label: biotin or Cy5 depending on assay
# murine CTGF (SPR), sequence (P29268 26-348): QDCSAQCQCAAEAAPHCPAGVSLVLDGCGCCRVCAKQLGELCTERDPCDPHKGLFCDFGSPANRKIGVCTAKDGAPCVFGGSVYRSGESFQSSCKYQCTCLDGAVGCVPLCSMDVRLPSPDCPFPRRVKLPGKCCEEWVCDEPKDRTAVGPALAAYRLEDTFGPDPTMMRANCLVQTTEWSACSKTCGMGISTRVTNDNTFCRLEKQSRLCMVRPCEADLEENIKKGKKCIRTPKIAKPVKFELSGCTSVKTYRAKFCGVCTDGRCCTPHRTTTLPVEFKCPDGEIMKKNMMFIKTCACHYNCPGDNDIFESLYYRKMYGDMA
# [2] = molecular target: CTGF (CCN2) (UniProt P29279 27-349); assay: as above; details: protein: commercial; label: biotin or Cy5 depending on assay
# CTGF (CCN2), sequence (P29279 27-349): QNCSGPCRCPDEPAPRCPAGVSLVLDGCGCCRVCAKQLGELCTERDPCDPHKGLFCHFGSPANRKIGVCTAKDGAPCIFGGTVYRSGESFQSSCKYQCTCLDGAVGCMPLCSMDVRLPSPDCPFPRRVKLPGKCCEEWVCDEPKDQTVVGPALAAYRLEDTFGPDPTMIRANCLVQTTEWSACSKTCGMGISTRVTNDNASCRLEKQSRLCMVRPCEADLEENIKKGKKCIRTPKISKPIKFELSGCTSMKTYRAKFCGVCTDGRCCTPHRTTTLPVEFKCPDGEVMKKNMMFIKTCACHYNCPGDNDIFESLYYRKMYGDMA
binder,measurement,setting,value
"AGGCCGGGAGGGTACCCATTGATGGTGTGATGACTGCCT (ssDNA, 3' PEG (high molecular mass)) [AptW2-1-39-PEG]",binding result,[1],binds
same,Kd,[2],7.86 nM
